Test results published in paper PMC6561738 (Science Advances, 2019).

How the values were obtained:
[1] = biological target: the molecule itself; assay: atomic force microscopy
[2] = biological target: SecA (wild type) (E. coli, UniProt P10408 1-901); assay: atomic force microscopy

B1: SecAC4Q801C, cross-linked dimeric species (SecA C98S, C885S, C887S, C896S, Q801C) (enzyme)
chain: MLIKLLTKVFGSRNDRTLRRMRKVVNIINAMEPEMEKLSDEELKGKTAEFRARLEKGEVLENLIPEAFAVVREASKRVFGMRHFDVQLLGGMVLNERSIAEMRTGEGKTLTATLPAYLNALTGKGVHVVTVNDYLAQRDAENNRPLFEFLGLTVGINLPGMPAPAKREAYAADITYGTNNEYGFDYLRDNMAFSPEERVQRKLHYALVDEVDSILIDEARTPLIISGPAEDSSEMYKRVNKIIPHLIRQEKEDSETFQGEGHFSVDEKSRQVNLTERGLVLIEELLVKEGIMDEGESLYSPANIMLMHHVTAALRAHALFTRDVDYIVKDGEVIIVDEHTGRTMQGRRWSDGLHQAVEAKEGVQIQNENQTLASITFQNYFRLYEKLAGMTGTADTEAFEFSSIYKLDTVVVPTNRPMIRKDLPDLVYMTEAEKIQAIIEDIKERTAKGQPVLVGTISIEKSELVSNELTKAGIKHNVLNAKFHANEAAIVAQAGYPAAVTIATNMAGRGTDIVLGGSWQAEVAALENPTAEQIEKIKADWQVRHDAVLEAGGLHIIGTERHESRRIDNQLRGRSGRQGDAGSSRFYLSMEDALMRIFASDRVSGMMRKLGMKPGEAIEHPWVTKAIANAQRKVESRNFDIRKQLLEYDDVANDQRRAIYSQRNELLDVSDVSETINSIREDVFKATIDAYIPPQSLEEMWDIPGLQERLKNDFDLDLPIAEWLDKEPELHEETLRERILAQSIEVYQRKEEVVGAEMMRHFEKGVMLQTLDSLWKEHLAAMDYLRQGIHLRGYAQKDPKCEYKRESFSMFAAMLESLKYEVISTLSKVQVRMPEEVEELEQQRRMEAERLAQMQQLSHQDDDSAAAAALAAQTGERKVGRNDPSPSGSGKKYKQSHGRLQ
modifications: cross-linked dimer (so in the source); the chemistry of the cross-link is not told
B1: binds [1].

B2: SecYEG translocon (SecY C329S, C385S; His-tagged SecE; SecG) (complex)
chain 1: MAKQPGLDFQSAKGGLGELKRRLLFVIGALIVFRIGSFIPIPGIDAAVLAKLLEQQRGTIIEMFNMFSGGALSRASIFALGIMPYISASIIIQLLTVVHPTLAEIKKEGESGRRKISQYTRYGTLVLAIFQSIGIATGLPNMPGMQGLVINPGFAFYFTAVVSLVTGTMFLMWLGEQITERGIGNGISIIIFAGIVAGLPPAIAHTIEQARQGDLHFLVLLLVAVLVFAVTFFVVFVERGQRRIVVNYAKRQQGRRVYAAQSTHLPLKVNMAGVIPAIFASSIILFPATIASWFGGGTGWNWLTTISLYLQPGQPLYVLLYASAIIFFSFFYTALVFNPRETADNLKKSGAFVPGIRPGEQTAKYIDKVMTRLTLVGALYITFISLIPEFMRDAMKVPFYFGGTSLLIVVVVIMDFMAQVQTLMMSSQYESALKKANLKGYGR
chain 2: MSANTEAQGSGRGLEAMKWVVVVALLLVAIVGNYLYRDIMLPLRALAVVILIAAAGGVALLTTKGKATVAFAREARTEVRKVIWPTRQETLHTTLIVAAVTAVMSLILWGLDGILVRLVSFITGLRF
chain 3: MYEALLVVFLIVAIGLVGLIMLQQGKGADMGASFGAGASATLFGSSGSGNFMTRMTALLATLFFIISLVLGNINSNKTNKGSEWENLSAPAKTEQTQPAAPAKPTSDIPN
B2: binds [2].
